{"source": "patent US20250376507A1", "about": "“NOVEL TUMOR ANTIGEN-TARGETING ANTICANCER AGENT” (INDUSTRY FOUNDATION OF CHONNAM NATIONAL UNIVERSITY, priority 2022, published 2025)", "key": {"[1]": {"test": "L-ASNase activity analysis (asparaginase activity kit)", "assay_type": "biochemical", "conditions": "25° C.", "description": "The L-ASNase enzyme activity of the recombinant proteins was measured with an asparaginase activity analysis kit using an OxiRed probe (Abcam, USA). 1 International unit (IU) was defined as the amount of enzyme generating 1.0 μmol of Asp per minute at 25° C."}, "[2]": {"test": "In vivo pharmacokinetic analysis", "parameters": "species or system BALB/c mice", "conditions": "10 IU intravenous, mouse serum", "description": "Six-week-old female BALB/c mice (Orient Company, Korea) were randomly assigned to different treatment groups (n=3) and intravenously injected with 10 IU of PASylated recombinant protein. Then, blood samples were taken from the eyes at the specified time (0-52 h) and left at 4° C. for 40 min. After centrifugation at 12,000 rpm for 20 min, the serum fraction was obtained and stored at −80° C. before further analysis. PASylated recombinant protein in serum was assessed using the ELISA method described above. The amount of serum recombinant protein was converted to enzyme activity."}, "[3]": {"test": "Thermal stability analysis at 55° C.", "assay_type": "physicochemical", "conditions": "after 180 min", "description": "Briefly, 200 μL of PASylated recombinant protein or L-ASNase (1 mg/mL) was incubated in a thermal cycler (Finepcr, Korea) at 55° C. for 30-180 min. The residual enzymatic activity of the proteins was measured using an asparaginase activity analysis kit as described above. The residual activity (%) at each incubation time was calculated relative to the sample activity at time 0."}, "CT-26 cells [4]": {"system": "CT-26 cells", "test": "Cell viability (CCK-8) of CT-26 cells", "assay_type": "cell-based, mouse", "description": "CT-26 and MC-38 cells (10^4 cells per well) were seeded into three wells of a 96-well plate and incubated at 37° C. The next day, the culture medium was replaced with 100 μL of fresh medium containing the above concentrations of anticancer agents. After incubation at 37° C. for 4 h, the culture medium was removed and the cells were washed three times with PBS. […] Finally, CCK-8 reagent (10 μL/well) was added for 3 h at 37° C., and the amount of color in each sample was measured at OD450."}, "CT-26 cells [5]": {"system": "CT-26 cells", "test": "Flow cytometry for ecto-CRT exposure in L-ASNase-treated CT-26 cells", "assay_type": "cell-based, mouse", "conditions": "200 IU/mL, 24 h", "description": "FIG. 6a is a graph showing the analysis of the cytotoxicity enhanced by CRT3LP and CRT4LP in tumor cells treated with ICD-induced anticancer agents and the viability of tumor cells treated with L-ASNases. CT-26 cells (4×10^4) cultured overnight were treated with L-ASNases (200 IU/mL) in 96-well plates and viability was measured at the indicated times. The viability at each time was calculated relative to time 0. Cells were stained with anti-CRT antibodies.\nFIG. 6b is a graph representing the results of flow cytometry histogram analysis for ecto-CRT. Filled black lines stained with isotype antibodies; red lines stained with anti-CRT antibodies."}}, "note": "“And” between values parts separate entries of the source, which are not always exact repeats. Equal values may be shown once."}
{"molecule": "L-ASNase: L-asparaginase, enzyme that hydrolyzes L-asparagine; purchased from Prospec, used as free control (protein, L-asparaginase, L-asparaginase, enzyme that hydrolyzes L-asparagine; purchased from Prospec, used as free control) LPNITILATGGTIAGGGDSATKSNYTAGKVGVENLVNAVPQLKDIANVKGEQVVNIGSQDMNDDVWLTLAKKINTDCDKTDGFVITHGTDTMEETAYFLDLTVKCDKPVVMVGAMRPSTSMSADGPFNLYNAVVTAADKASANRGVLVVMNDTVLDGRDVTKTNTTDVATFKSVNYGPLGYIHNGKIDYQRTPARKHTSDTPFDVSKLNELPKVGIVYNYANASDLPAKALVDAGYDGIVSAGVGNGNLYKTVFDTLATAAKNGTAVVRSSRVPTGATTQDVEVDDAKYGFVASGTLNPQKARVLLQLALTQTKDPQQIQQIFNQY", "values": [{"measurement": "enzymatic activity (specific activity)", "setting": "[1]", "value": "~7.2", "unit": "IU/nmol"}, {"measurement": "half-life", "setting": "[2]", "value": "1.8 h and 1.79 ± 0.22 h"}, {"measurement": "residual enzymatic activity, of the initial activity", "setting": "[3]", "value": 16.4, "unit": "%"}, {"measurement": "reduction of cell viability in cells pretreated with anticancer agents", "setting": "CT-26 cells [4]; 1 IU/mL, 24 h after pretreatment", "value": "barely reduced"}, {"measurement": "cell viability", "setting": "CT-26 cells [4]; 200 IU/mL, 24 h, no anticancer pretreatment", "value": "progressive decrease in viability"}, {"measurement": "CRT exposure (ecto-CRT)", "setting": "CT-26 cells [5]", "value": "no significant CRT exposure"}]}
